Where a chain is given by its changes, count along the chain named. In names and notes the source's numbering stands. Read-outs that look alike come from different tables or passages of the source. One block for each binder: values may come before it.
Assays:
[1] = target: T1, hu-sCD47-6His; extracellular domain of human CD47 antigen with 6His-tag (human); experiment: SPR Biacore
T1 construct: also called hCD47-his; soluble hCD47

[2] = target: T1, hu-sCD47-6His; extracellular domain of …; experiment: SPR Biacore; remark: listed apart in the source
Description: (§1) An anti-human or anti-mouse IgG (Fc) was first immobilized on the surface of Serie S Sensor Chips CM5 using the human or mouse antibody capture and amine coupling kits, following the manufacturer's instructions (GE Healthcare). […] The mouse, chimerized or humanized antibodies to be tested were then captured onto the appropriate anti-mouse or anti-human IgG surface in all flow cells except flow cell 1 used as control, at concentration and contact time adjusted so that ˜300 RU were captured on the surface. Binding kinetics were studied by passing increasing concentrations of hCD47-his in a series of five 10 minute injections through all flow cells at a rate of 30 μL/min. […] Following the final injection, buffer was passed across each flow cell for 60 minutes (mouse) or 30 minutes (human) to monitor the dissociation of bound antigen. Regeneration of the binding surface was carried out at the end of the cycle by flowing 3 M MgCl₂ for 60 s at 20 μL/min followed by 10 mM glycine-HCl, pH 1.7 for 180 s at 10 μl/min (for human) or by flowing 10 mM glycine-HCl, ph 1.7 for 360 s at 10 μl/min (for mouse). A second cycle with the same antibodies but no antigen was run as a control. Kinetics binding constants were estimated by non-linear fitting of the sensogram data to the 1:1 binding model provided by the Biacore T200 evaluation software.

[3] = target: T2, human CD47 (hCD47) expressed on cells (human, UniProt Q08722 19-323); experiment: flow cytometry, Raji cells
T2 construct: Transfected CHO cells or endogenous CD47 of human cells; also called CHO-hCD47; CD47 on Raji cells

[4] = target: T2, human CD47 (hCD47) expressed on cells; experiment: flow cytometry, Raji cells; remark: listed apart in the source
[5] = target: T3, mouse CD47 (mCD47) expressed on CHO cells (mouse, UniProt Q61735 19-303); experiment: flow cytometry, CHO-mCD47 cells
T3 construct: whole, on cells; also called CHO-mCD47
T3 sequence (looked up): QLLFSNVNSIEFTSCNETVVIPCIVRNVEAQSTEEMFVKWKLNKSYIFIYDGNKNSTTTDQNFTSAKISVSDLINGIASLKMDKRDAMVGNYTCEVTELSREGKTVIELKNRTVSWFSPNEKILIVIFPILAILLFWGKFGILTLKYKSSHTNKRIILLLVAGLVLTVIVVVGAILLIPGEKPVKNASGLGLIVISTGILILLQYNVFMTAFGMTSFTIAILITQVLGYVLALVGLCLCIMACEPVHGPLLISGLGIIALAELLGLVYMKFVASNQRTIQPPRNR

[6] = target: T1, hu-sCD47-6His; extracellular domain of …; experiment: SPR Biacore; head read as x 10^-4
Description: as §1

[7] = target: T1, hu-sCD47-6His; extracellular domain of …; experiment: ELISA, coated glycosylated hCD47-His
Protocol: (§2) The EC50 and EC95 values were calculated by using the non-linear regression/log (antibody) versus response (four parameters) model of the GraphPad Prism software.

[8] = target: T4, N-deglycosylated soluble hCD47-His (PNGase treated) (human, N-glycans removed with PNGase); experiment: ELISA; against glycosylated hCD47-His
T4 construct: also called deglycosylated-hCD47; N-Deglycosylated hCD47-His
Protocol: as §2

[9] = target: T4, N-deglycosylated soluble hCD47-His …; experiment: ELISA, coated N-deglycosylated hCD47-His
[10] = target: T2, human CD47 (hCD47) expressed on cells; experiment: flow cytometry, Raji cells, competition with hSIRPα
[11] = target: T2, human CD47 (hCD47) expressed on cells; experiment: as above; remark: listed apart in the source
[12] = target: T1, hu-sCD47-6His; extracellular domain of …; experiment: ELISA, one-site binding saturation fit, glycosylated hCD47
Protocol: (§3) The equilibrium binding constant values were calculated by using the binding saturation/one-site binding model of the GraphPad Prism software (mean +/− SD of triplicates).

[13] = target: T1, hu-sCD47-6His; extracellular domain of …; experiment: as above; remark: listed apart in the source
Protocol: (§4) The Bmax values were calculated by using the binding saturation/one-site binding model of the GraphPad Prism software (mean +/− SD of triplicates).

[14] = target: T4, N-deglycosylated soluble hCD47-His …; experiment: ELISA, one-site binding saturation fit, deglycosylated hCD47
Protocol: as §3

[15] = target: T4, N-deglycosylated soluble hCD47-His …; experiment: as above; remark: listed apart in the source
Protocol: as §4

[16] = target: T2, human CD47 (hCD47) expressed on cells; experiment: flow cytometry on Raji cells, hIgG4 format, delta MFI
[17] = target: T2, human CD47 (hCD47) expressed on cells; experiment: as above; remark: listed apart in the source
[18] = target: T2, human CD47 (hCD47) expressed on cells; experiment: as above; remark: listed apart in the source
[19] = target: T2, human CD47 (hCD47) expressed on cells; experiment: as above; remark: listed apart in the source
[20] = target: T2, human CD47 (hCD47) expressed on cells; experiment: as above; remark: listed apart in the source
[21] = target: T2, human CD47 (hCD47) expressed on cells; experiment: flow cytometry on Raji cells, hIgG4 format: inhibition of hSIRPα binding to hCD47
[22] = target: T2, human CD47 (hCD47) expressed on cells; experiment: as above; remark: listed apart in the source
[23] = target: T2, human CD47 (hCD47) expressed on cells; experiment: as above; remark: listed apart in the source
[24] = target: T2, human CD47 (hCD47) expressed on cells; experiment: as above; remark: listed apart in the source
[25] = target: T2, human CD47 (hCD47) expressed on cells; experiment: as above; remark: listed apart in the source
[26] = target: T2, human CD47 (hCD47) expressed on cells; experiment: cell-based or functional assay
[27] = target: T2, human CD47 (hCD47) expressed on cells; experiment: flow cytometry, Raji cells; remark: listed apart in the source
[28] = target: T3, mouse CD47 (mCD47) expressed on CHO …; experiment: flow cytometry, CHO-mCD47 cells; remark: listed apart in the source
[29] = target: T1, hu-sCD47-6His; extracellular domain of …; experiment: SPR Biacore T200, antibody captured, hCD47-his analyte;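 also: antibodies captured on anti-IgG (Fc) CM5 chip, five sequential 10 min antigen injections at rising concentrations, reference flow cell and antigen-free cycle as controls, 1:1 model fit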
Description: as §1

[30] = target: T2, human CD47 (hCD47) expressed on cells; experiment: flow cytometry, hCD47-CHO cells, competition with His-hSIRPα
Protocol: (§5) Human CD47-transfected cells (3×10⁵ cells/well of 96-well plate) were first incubated at +4° C. for 30 minutes with serial dilutions of anti-CD47 antibodies or isotype control antibody (in mIgG2a or mIgG1 format). […] The percentage inhibition was plotted against antibody concentration and the IC50 values were calculated using a nonlinear regression analysis model of the GraphPad Prism software.

[31] = target: T1, hu-sCD47-6His; extracellular domain of …; experiment: SPR Biacore T200, antibody captured, hCD47-his analyte; exponent printed without minus sign, read as 10^-8;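 as to koff: antibodies captured on anti-IgG (Fc) CM5 chip, five sequential 10 min antigen injections at rising concentrations, reference flow cell and antigen-free cycle as controls, 1:1 model fit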;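 as to kon: antibodies captured on anti-IgG (Fc) CM5 chip, five sequential 10 min antigen injections at rising concentrations, reference flow cell and antigen-free cycle as controls, 1:1 model fit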
Description: as §1

[32] = target: T2, human CD47 (hCD47) expressed on cells; experiment: flow cytometry, hCD47-CHO cells, competition with His-hSIRPα; lower end tied to candidate 26 by Table 5
Protocol: as §5

[33] = target: T2, human CD47 (hCD47) expressed on cells; experiment: flow cytometry, CD47-transfected CHO cells
[34] = target: T2, human CD47 (hCD47) expressed on cells; experiment: flow cytometry, Raji cells; lower end tied to candidate 15 by Table 6
Protocol: (§6) Raji cells (ATCC-CLL-86; 2×10⁵ cells/well of 96-well plate) were first incubated at +4° C. for 30 minutes with serial dilutions of anti-CD47 antibodies or control isotype antibody (in mIgG2a or mIgG1 format). The cells were then washed and incubated for 30 minutes at +4° C. with a PE-conjugated F(ab)′2 goat anti-mouse IgG antibody ( 1/100 dilution, Beckman Coulter). After washings, the fluorescence of the cells was analyzed by flow cytometry on an Accuri-C6 flow cytometer (BD Biosciences).
(§7) The delta of MFI, representing the difference between the intensity measured with the tested antibody and the intensity in the absence of antibody, was calculated for each antibody concentration and the values were plotted against the antibody concentrations. The EC50 values were then calculated by using a nonlinear regression analysis model of the GraphPad Prism software.

[35] = target: T2, human CD47 (hCD47) expressed on cells; experiment: flow cytometry, Raji cells; upper end tied to candidate 19 by Table 6
Protocol: as §6, §7

[36] = target: T2, human CD47 (hCD47) expressed on cells; experiment: flow cytometry, Raji cells, competition with His-hSIRPα
Protocol: (§8) The percent inhibition was plotted against antibody concentration and the IC50 values were calculated by using a nonlinear regression analysis model of the GraphPad Prism software.

[37] = target: T2, human CD47 (hCD47) expressed on cells; experiment: flow cytometry, Raji cells, competition with His-hSIRPα; upper end tied to candidate 19 by Table 7
Protocol: as §8

Kd [1]: 3.22 nM
kon [1]: 169000 M⁻¹ s⁻¹
Kd [2]: 2.48 nM
koff [2]: 0.000543 s⁻¹
kon [2]: 225000 M⁻¹ s⁻¹
EC50 [3]: 0.15 µg/mL
EC50 [4]: 0.0751 µg/mL
binding result [5]: no binding
koff [6]: 0.000505 s⁻¹
EC50 [7]: 0.028 nM
EC95 [7]: 667 pM
EC50 ratio Deglycosylated/Glycosylated [8]: 1.7 ratio
EC95 ratio Deglycosylated/Glycosylated [8]: 5 ratio
EC50 [9]: 0.0474 nM
EC95 [9]: 3.33 nM
IC50 [10]: 0.138 µg/mL
IC50 [11]: 0.11 µg/mL
equilibrium binding constant [12]: 27.3 pM
Bmax [13]: 2.9 OD value
equilibrium binding constant [14]: 38.8 pM
Bmax2 [15]: 2.2 OD value
EC50 (read off the curve) [16]: ~0.1 µg/mL
EC50 (read off the curve) [17]: ~0.1 µg/mL
EC50 (read off the curve) [18]: ~0.1 µg/mL
EC50 (read off the curve) [19]: ~0.1 µg/mL
EC50 (read off the curve) [20]: ~0.1 µg/mL
IC50 (read off the curve) [21]: ~0.2 µg/mL
IC50 (read off the curve) [22]: ~0.2 µg/mL
IC50 (read off the curve) [23]: ~0.2 µg/mL
IC50 (read off the curve) [24]: ~0.2 µg/mL
IC50 (read off the curve) [25]: ~0.2 µg/mL
B1: hIgG4 chimeric candidate 20 (mouse VH0/VL0, human Fcγ4-S228P and human Kappa backbone) (antibody, V domains shown)
VH: QVQLKQSGAELVRPGASVKLSCKASGYSFTDYYINWVKQRPGQGLEWIARIYPGIGNTYYNKKFKGKATLTAEKSSSTAYMQLNSLTSEDSAVYFCARGHYGRGMDYWGQGTSVTVSS
VL: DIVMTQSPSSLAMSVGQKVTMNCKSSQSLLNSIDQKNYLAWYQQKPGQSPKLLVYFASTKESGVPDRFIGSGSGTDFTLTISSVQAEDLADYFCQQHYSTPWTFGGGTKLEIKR
notes: hIgG4-S228P/kappa; also called Chim; 20; Chim 20

Phagocytic index, Raji cells and human macrophages, antibody at 0.125 µg/mL [26]: 106 Raji cells ingested per 100 macrophages
EC50 [27]: 0.136 µg/mL
koff [29]: 0.000325 s⁻¹
kon [29]: 20700 M⁻¹ s⁻¹
IC50 [30]: 0.482 µg/mL
Kd [31]: 15.7 nM
B2: Candidate 22 (VL008-AL13-8G5-8K3), mouse IgG (antibody, V domains shown)
VH: QVQLQQPGAELVKPGASVKLSCKASGYTFTTYWMHWVKQRPGQGLEWIGMIHPNSGTTNYNEKFKSKATLTVDKSSSSTYMQLSSLTSEDSAVYYCTRSHYYDGHFSYWGQGTLVTVSA
VL: DIVMSQSPSSLAVSAGEKVTMSCKSSQSLLNSRTRKNYLAWYQQKPGQSPKLLIYWASTRESGVPDRFTGSGSGTDFTLTISSVQAEDLAVYYCKQSYNLWTFGGGTRLEIK
notes: Recombinant mouse IgG2a or mIgG1 format, by assay; also called antibody 22
binding result [28]: no binding (tested: 7.3 µg/mL highest concentration)

Phagocytic index, Raji cells and human macrophages, antibody at 0.125 µg/mL [26]: 85.3 Raji cells ingested per 100 macrophages
EC50 [27]: 0.07 µg/mL
Kd [29]: 1.87 nM
koff [29]: 0.000372 s⁻¹
kon [29]: 200000 M⁻¹ s⁻¹
IC50 [30]: 0.359 µg/mL
IC50 [32]: 2.4 nM
B3: Candidate 26 (VT008-AL6-10G3-10K1), mouse IgG (antibody, V domains shown)
VH: QVQLQQPGPELVKPGASVKLSCKASGYTFTNYWIHWLNQRPGRGLEWIGRIDPNSGGTKYNEKFKSKAILTVDKSSSTTYMQLSSLTSEDSAVYYCARGGYTMDYWGQGTSVTVSS
VL: DVVMPQTPLSLPVSLGDHASISCRSSQSLLHSNGNTYLHWYLQKPGQSPKLLIYKVSYRFSGVPDRISGSGSGTDFTLKISRVEAEDLGVYFCFQSTHVPWTFGGGTKLEIK
notes: Recombinant mouse IgG2a or mIgG1 format, by assay

binding result [33]: binds
B4: Candidate 29 (VT008-AL6-20G7-20K7), mouse IgG (antibody, V domains shown)
VH: QVQLQQSGTELAKPGASVKLSCKASGYTFINYWIYWVKERPGQVLEWIGYINPRSDDTKYNQKFRDRATLTADKSSTTAYLQLNSLTNDDSALYYCARGGFTMDFWGQGTSVTVSS
VL: B3 VL with P5T, H18Q, K50N, I67F, F94S, S96G, W101Y

Phagocytic index, Raji cells and human macrophages, antibody at 0.125 µg/mL [26]: 74.4 Raji cells ingested per 100 macrophages
EC50 [27]: 0.031 µg/mL
Kd [29]: 4.24 nM
koff [29]: 0.00239 s⁻¹
kon [29]: 565000 M⁻¹ s⁻¹
IC50 [30]: 0.605 µg/mL
EC50 [34]: 0.2 nM
B5: Candidate 15 (VT008-AL6-18G1-18K21), mouse IgG (antibody, V domains shown)
VH: QVQLQQPGAELVKPGTSVKLSCKASGYTFINYWIHWVKQRPGRGLEWIGRIDPNTVDAKYNEKFKSKATLTVDKPSSIAYMQLSSLTSEDSAVYYCSRGGYTMDYWGQGTSVTVSS
VL: B3 VL with P5T, H18Q, L30V, K50T, Y58N, I67F, V90I
notes: as for B3

Phagocytic index, Raji cells and human macrophages, antibody at 0.125 µg/mL [26]: 73.9 Raji cells ingested per 100 macrophages
EC50 [27]: 0.165 µg/mL
Kd [29]: 2.25 nM
koff [29]: 0.000176 s⁻¹
kon [29]: 79000 M⁻¹ s⁻¹
IC50 [30]: 0.858 µg/mL
EC50 [35]: 1.1 nM
B6: Candidate 19 (VL008-AL17-7G1-7K6), mouse IgG (antibody, V domains shown)
VH: QVQLQQSGPELVKPGASVKISCKASVYTFTDYYINWVKQRPGQGLEWVGWIFPGSGLTYYNKKFKGKATLTVDKSSSTAYMLLSSLTSEDSAVYFCARPYYGSRWDYAMDYWGQGTSVTVSS
VL: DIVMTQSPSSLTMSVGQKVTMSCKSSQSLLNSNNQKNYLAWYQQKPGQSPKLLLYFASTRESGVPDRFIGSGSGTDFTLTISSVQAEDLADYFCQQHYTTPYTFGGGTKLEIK
notes: as for B3
binding result [28]: no binding (tested: 7.3 µg/mL highest concentration)

IC50 [36]: 0.369 µg/mL
IC50 [37]: 2.46 nM
B7: Candidate 19, chimeric hIgG format (hIgG1 or hIgG4) (antibody, V domains shown)
VH: B6 VH
VL: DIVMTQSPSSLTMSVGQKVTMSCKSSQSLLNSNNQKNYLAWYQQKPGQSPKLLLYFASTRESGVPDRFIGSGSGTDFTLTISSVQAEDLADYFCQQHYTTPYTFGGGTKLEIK
notes: also called Candidate 19 (hIgG format)

Reference: patent publication US20220356245A1 (FORTY SEVEN, published 2022)
